The target in one experiment is human GLP-1 receptor (human, UniProt P43220). In words: cell-based or functional assay.
The target of another experiment is human glucagon receptor (human, UniProt P47871). The experiment in a line: cell-based or functional assay.

Starred links: 1 amine or outer side, 2 acyl side, 3 side chain; linkers in the order of their positions; H or OH if unused. Non-standard residues stand in square brackets, D forms with d. Groups on a side chain read outwards from the residue. No end group written: not given here. *: point of attachment. Trp(5-Br) = N[C@@H](Cc1c[nH]c2ccc(Br)cc12)C(=O)O; Bip = N[C@@H](Cc1ccc(-c2ccccc2)cc1)C(=O)O; C18 diacid = O=C(O)CCCCCCCCCCCCCCCCC(=O)*; γGlu = O=C(O)[C@H](CCC(=O)[*:2])N[*:1]; αMeF = C[C@](N)(Cc1ccccc1)C(=O)O; AEEA = NCCOCCOCC(=O)O; Aib = CC(C)(N)C(=O)O

B1: Peptide 429 (peptide)
peptide: H[Aib]QGTFTSDVSK[αMeF]LDSK([AEEA-AEEA-γGlu-C18 diacid])RAQDFVRWLEA[Aib]G-NH2
modifications: N-terminus assumed
SMILES: CC(C)C[C@H](NC(=O)[C@H](Cc1c[nH]c2ccccc12)NC(=O)[C@H](CCCNC(=N)N)NC(=O)[C@@H](NC(=O)[C@H](Cc1ccccc1)NC(=O)[C@H](CC(=O)O)NC(=O)[C@H](CCC(N)=O)NC(=O)[C@H](C)NC(=O)[C@H](CCCNC(=N)N)NC(=O)[C@H](CCCCNC(=O)COCCOCCNC(=O)COCCOCCNC(=O)CC[C@H](NC(=O)CCCCCCCCCCCCCCCCC(=O)O)C(=O)O)NC(=O)[C@H](CO)NC(=O)[C@H](CC(=O)O)NC(=O)[C@H](CC(C)C)NC(=O)[C@](C)(Cc1ccccc1)NC(=O)[C@H](CCCCN)NC(=O)[C@H](CO)NC(=O)[C@@H](NC(=O)[C@H](CC(=O)O)NC(=O)[C@H](CO)NC(=O)[C@@H](NC(=O)[C@H](Cc1ccccc1)NC(=O)[C@@H](NC(=O)CNC(=O)[C@H](CCC(N)=O)NC(=O)C(C)(C)NC(=O)[C@@H](N)Cc1c[nH]cn1)[C@@H](C)O)[C@@H](C)O)C(C)C)C(C)C)C(=O)N[C@@H](CCC(=O)O)C(=O)N[C@@H](C)C(=O)NC(C)(C)C(=O)NCC(N)=O
As to B1, the “cAMP production EC50” value with human GLP-1 receptor came out at 0.015 nM; with human glucagon receptor it was 0.144 nM.

B2: Peptide 430 (peptide)
peptide: H[Aib]QGTFTSDVSK[αMeF]LDSK([AEEA-AEEA-γGlu-γGlu-C18 diacid])RAQDFVRWLEA[Aib]G-NH2
modifications: N-terminus assumed
SMILES: CC(C)C[C@H](NC(=O)[C@H](Cc1c[nH]c2ccccc12)NC(=O)[C@H](CCCNC(=N)N)NC(=O)[C@@H](NC(=O)[C@H](Cc1ccccc1)NC(=O)[C@H](CC(=O)O)NC(=O)[C@H](CCC(N)=O)NC(=O)[C@H](C)NC(=O)[C@H](CCCNC(=N)N)NC(=O)[C@H](CCCCNC(=O)COCCOCCNC(=O)COCCOCCNC(=O)CC[C@H](NC(=O)CC[C@H](NC(=O)CCCCCCCCCCCCCCCCC(=O)O)C(=O)O)C(=O)O)NC(=O)[C@H](CO)NC(=O)[C@H](CC(=O)O)NC(=O)[C@H](CC(C)C)NC(=O)[C@](C)(Cc1ccccc1)NC(=O)[C@H](CCCCN)NC(=O)[C@H](CO)NC(=O)[C@@H](NC(=O)[C@H](CC(=O)O)NC(=O)[C@H](CO)NC(=O)[C@@H](NC(=O)[C@H](Cc1ccccc1)NC(=O)[C@@H](NC(=O)CNC(=O)[C@H](CCC(N)=O)NC(=O)C(C)(C)NC(=O)[C@@H](N)Cc1c[nH]cn1)[C@@H](C)O)[C@@H](C)O)C(C)C)C(C)C)C(=O)N[C@@H](CCC(=O)O)C(=O)N[C@@H](C)C(=O)NC(C)(C)C(=O)NCC(N)=O
B2: the entries for the “cAMP production EC50” value with human GLP-1 receptor and with human glucagon receptor were 0.0244 nM and 0.16 nM, respectively.

B3: Peptide 434 (peptide)
peptide: H[Aib]QGTFTSDVSK[αMeF]LDSK([AEEA-AEEA-γGlu-C18 diacid])RAQDFVR[Trp(5-Br)]LL[Aib]E-OH
modifications: N-terminus assumed
SMILES: CC(C)C[C@H](NC(=O)[C@H](Cc1c[nH]c2ccc(Br)cc12)NC(=O)[C@H](CCCNC(=N)N)NC(=O)[C@@H](NC(=O)[C@H](Cc1ccccc1)NC(=O)[C@H](CC(=O)O)NC(=O)[C@H](CCC(N)=O)NC(=O)[C@H](C)NC(=O)[C@H](CCCNC(=N)N)NC(=O)[C@H](CCCCNC(=O)COCCOCCNC(=O)COCCOCCNC(=O)CC[C@H](NC(=O)CCCCCCCCCCCCCCCCC(=O)O)C(=O)O)NC(=O)[C@H](CO)NC(=O)[C@H](CC(=O)O)NC(=O)[C@H](CC(C)C)NC(=O)[C@](C)(Cc1ccccc1)NC(=O)[C@H](CCCCN)NC(=O)[C@H](CO)NC(=O)[C@@H](NC(=O)[C@H](CC(=O)O)NC(=O)[C@H](CO)NC(=O)[C@@H](NC(=O)[C@H](Cc1ccccc1)NC(=O)[C@@H](NC(=O)CNC(=O)[C@H](CCC(N)=O)NC(=O)C(C)(C)NC(=O)[C@@H](N)Cc1c[nH]cn1)[C@@H](C)O)[C@@H](C)O)C(C)C)C(C)C)C(=O)N[C@@H](CC(C)C)C(=O)NC(C)(C)C(=O)N[C@@H](CCC(=O)O)C(=O)O
On to B3, for which the “cAMP production EC50” value amounted to 0.153 nM with human GLP-1 receptor and 0.294 nM in the experiment with human glucagon receptor.

B4: Peptide 431 (peptide)
peptide: H[Aib]QGTFTSDVSK[αMeF]LDTK([AEEA-AEEA-γGlu-γGlu-C18 diacid])RAQDFVAWLEA[Aib]G-NH2
modifications: N-terminus assumed
SMILES: CC(C)C[C@H](NC(=O)[C@H](Cc1c[nH]c2ccccc12)NC(=O)[C@H](C)NC(=O)[C@@H](NC(=O)[C@H](Cc1ccccc1)NC(=O)[C@H](CC(=O)O)NC(=O)[C@H](CCC(N)=O)NC(=O)[C@H](C)NC(=O)[C@H](CCCNC(=N)N)NC(=O)[C@H](CCCCNC(=O)COCCOCCNC(=O)COCCOCCNC(=O)CC[C@H](NC(=O)CC[C@H](NC(=O)CCCCCCCCCCCCCCCCC(=O)O)C(=O)O)C(=O)O)NC(=O)[C@@H](NC(=O)[C@H](CC(=O)O)NC(=O)[C@H](CC(C)C)NC(=O)[C@](C)(Cc1ccccc1)NC(=O)[C@H](CCCCN)NC(=O)[C@H](CO)NC(=O)[C@@H](NC(=O)[C@H](CC(=O)O)NC(=O)[C@H](CO)NC(=O)[C@@H](NC(=O)[C@H](Cc1ccccc1)NC(=O)[C@@H](NC(=O)CNC(=O)[C@H](CCC(N)=O)NC(=O)C(C)(C)NC(=O)[C@@H](N)Cc1c[nH]cn1)[C@@H](C)O)[C@@H](C)O)C(C)C)[C@@H](C)O)C(C)C)C(=O)N[C@@H](CCC(=O)O)C(=O)N[C@@H](C)C(=O)NC(C)(C)C(=O)NCC(N)=O
With B4, the “cAMP production EC50” value with human GLP-1 receptor came out at 0.0446 nM; in the experiment with human glucagon receptor, 0.194 nM.

B5: Peptide 428 (peptide)
peptide: H[Aib]QGTFTSDVSK[αMeF]LDTK([AEEA-AEEA-γGlu-γGlu-C18 diacid])RARDFVQWLLE[Aib]G-NH2
modifications: N-terminus assumed
SMILES: CC(C)C[C@H](NC(=O)[C@H](Cc1c[nH]c2ccccc12)NC(=O)[C@H](CCC(N)=O)NC(=O)[C@@H](NC(=O)[C@H](Cc1ccccc1)NC(=O)[C@H](CC(=O)O)NC(=O)[C@H](CCCNC(=N)N)NC(=O)[C@H](C)NC(=O)[C@H](CCCNC(=N)N)NC(=O)[C@H](CCCCNC(=O)COCCOCCNC(=O)COCCOCCNC(=O)CC[C@H](NC(=O)CC[C@H](NC(=O)CCCCCCCCCCCCCCCCC(=O)O)C(=O)O)C(=O)O)NC(=O)[C@@H](NC(=O)[C@H](CC(=O)O)NC(=O)[C@H](CC(C)C)NC(=O)[C@](C)(Cc1ccccc1)NC(=O)[C@H](CCCCN)NC(=O)[C@H](CO)NC(=O)[C@@H](NC(=O)[C@H](CC(=O)O)NC(=O)[C@H](CO)NC(=O)[C@@H](NC(=O)[C@H](Cc1ccccc1)NC(=O)[C@@H](NC(=O)CNC(=O)[C@H](CCC(N)=O)NC(=O)C(C)(C)NC(=O)[C@@H](N)Cc1c[nH]cn1)[C@@H](C)O)[C@@H](C)O)C(C)C)[C@@H](C)O)C(C)C)C(=O)N[C@@H](CC(C)C)C(=O)N[C@@H](CCC(=O)O)C(=O)NC(C)(C)C(=O)NCC(N)=O
As to B5, the “cAMP production EC50” value with human GLP-1 receptor stood at 0.0331 nM; in the experiment with human glucagon receptor, 0.0105 nM.

B6: Peptide 435 (peptide)
peptide: H[Aib]QGTFTSDVSK[αMeF]LDTK([AEEA-AEEA-γGlu-C18 diacid])RARDFVQ[Aib]LLE[Aib]G-OH
modifications: N-terminus assumed
SMILES: CC(C)C[C@H](NC(=O)[C@H](CC(C)C)NC(=O)C(C)(C)NC(=O)[C@H](CCC(N)=O)NC(=O)[C@@H](NC(=O)[C@H](Cc1ccccc1)NC(=O)[C@H](CC(=O)O)NC(=O)[C@H](CCCNC(=N)N)NC(=O)[C@H](C)NC(=O)[C@H](CCCNC(=N)N)NC(=O)[C@H](CCCCNC(=O)COCCOCCNC(=O)COCCOCCNC(=O)CC[C@H](NC(=O)CCCCCCCCCCCCCCCCC(=O)O)C(=O)O)NC(=O)[C@@H](NC(=O)[C@H](CC(=O)O)NC(=O)[C@H](CC(C)C)NC(=O)[C@](C)(Cc1ccccc1)NC(=O)[C@H](CCCCN)NC(=O)[C@H](CO)NC(=O)[C@@H](NC(=O)[C@H](CC(=O)O)NC(=O)[C@H](CO)NC(=O)[C@@H](NC(=O)[C@H](Cc1ccccc1)NC(=O)[C@@H](NC(=O)CNC(=O)[C@H](CCC(N)=O)NC(=O)C(C)(C)NC(=O)[C@@H](N)Cc1c[nH]cn1)[C@@H](C)O)[C@@H](C)O)C(C)C)[C@@H](C)O)C(C)C)C(=O)N[C@@H](CCC(=O)O)C(=O)NC(C)(C)C(=O)NCC(=O)O
For B6, the figures for the “cAMP production EC50” value in the experiment with human GLP-1 receptor and with human glucagon receptor were 0.0227 nM and 0.24 nM, respectively.

B7: Peptide 432 (peptide)
peptide: H[Aib]QGTFTSDVSK[αMeF]LDSK([AEEA-AEEA-γGlu-C18 diacid])RAQDFVR[Bip]LL[Aib]E-OH
modifications: N-terminus assumed
SMILES: CC(C)C[C@H](NC(=O)[C@H](Cc1ccc(-c2ccccc2)cc1)NC(=O)[C@H](CCCNC(=N)N)NC(=O)[C@@H](NC(=O)[C@H](Cc1ccccc1)NC(=O)[C@H](CC(=O)O)NC(=O)[C@H](CCC(N)=O)NC(=O)[C@H](C)NC(=O)[C@H](CCCNC(=N)N)NC(=O)[C@H](CCCCNC(=O)COCCOCCNC(=O)COCCOCCNC(=O)CC[C@H](NC(=O)CCCCCCCCCCCCCCCCC(=O)O)C(=O)O)NC(=O)[C@H](CO)NC(=O)[C@H](CC(=O)O)NC(=O)[C@H](CC(C)C)NC(=O)[C@](C)(Cc1ccccc1)NC(=O)[C@H](CCCCN)NC(=O)[C@H](CO)NC(=O)[C@@H](NC(=O)[C@H](CC(=O)O)NC(=O)[C@H](CO)NC(=O)[C@@H](NC(=O)[C@H](Cc1ccccc1)NC(=O)[C@@H](NC(=O)CNC(=O)[C@H](CCC(N)=O)NC(=O)C(C)(C)NC(=O)[C@@H](N)Cc1c[nH]cn1)[C@@H](C)O)[C@@H](C)O)C(C)C)C(C)C)C(=O)N[C@@H](CC(C)C)C(=O)NC(C)(C)C(=O)N[C@@H](CCC(=O)O)C(=O)O
Take B7: the “cAMP production EC50” value in the experiment with human GLP-1 receptor was found to be 1.38 nM; with human glucagon receptor it was 1.16 nM.

(Values after patent publication US12630600B2 (MEDIMMUNE LIMITED, priority 2022, dated 2026).)
